Measurements published in paper PMC10044410.
pKd: −log10 of the molar value.

Legend:
[1] = molecular target: GroEL (wild type, recombinant, from pET22b-groL) (E. coli) (UniProt P0A6F5); assay: SEC
[2] = molecular target: FM-CnoX (fluorescein-5-maleimide-labeled CnoX) (E. coli) (UniProt P77395); assay: fluorescence polarisation
[3] = molecular target: FM-CnoX (fluorescein-5-maleimide-labeled CnoX) (E. coli) (UniProt P77395); assay: other fluorescence titration

Substance	stoichiometry N (CnoX per GroEL double ring) [1]	pKd [2]	pKd [3]
CnoX (wild type, recombinant, from pET22b-cnoX) (from UniProt P77395 1-284) (natural protein)	1		
GroEL (untagged, from pET15b, for quantitative binding studies) (from UniProt P0A6F5 1-548) (natural protein)		6.51	6.46
